Results reported in PMC8476121, “Structural insights into the activation of human calcium-sensing receptor” (eLife, 2021).

Assays:
[1] = target: T1, CaSR ECD (extracellular domain of human calcium-sensing receptor) (Homo sapiens, UniProt P41180); experiment: SPR; Biacore T200; CaSR ECD coupled to the chip by amino-carboxyl coupling; nanobody flowed at a series of concentrations (30 ul/min, association 90 s, dissociation 220 s); 25 C; 20 mM HEPES pH 7.4, 150 mM NaCl, 0.05% Tween 20; settings: both partners purified
T1 construct: human calcium-sensing receptor (CaSR), extracellular domain (VFT domain and cysteine rich domain); crystal structures of CaSR ECD (PDB 5K5T, 5K5S; Geng et al., 2016) are cited but not tied to this construct

[2] = target: the molecule itself; experiment: cryo-EM structure; inactive state: CaSR in GDN/CHS micelles with NPS-2143 (NAM), 1 mM CaCl2 and a 1.2 molar excess of NB-2D11

T1 sequence (P41180 whole entry, looked up, the tested form may be a part): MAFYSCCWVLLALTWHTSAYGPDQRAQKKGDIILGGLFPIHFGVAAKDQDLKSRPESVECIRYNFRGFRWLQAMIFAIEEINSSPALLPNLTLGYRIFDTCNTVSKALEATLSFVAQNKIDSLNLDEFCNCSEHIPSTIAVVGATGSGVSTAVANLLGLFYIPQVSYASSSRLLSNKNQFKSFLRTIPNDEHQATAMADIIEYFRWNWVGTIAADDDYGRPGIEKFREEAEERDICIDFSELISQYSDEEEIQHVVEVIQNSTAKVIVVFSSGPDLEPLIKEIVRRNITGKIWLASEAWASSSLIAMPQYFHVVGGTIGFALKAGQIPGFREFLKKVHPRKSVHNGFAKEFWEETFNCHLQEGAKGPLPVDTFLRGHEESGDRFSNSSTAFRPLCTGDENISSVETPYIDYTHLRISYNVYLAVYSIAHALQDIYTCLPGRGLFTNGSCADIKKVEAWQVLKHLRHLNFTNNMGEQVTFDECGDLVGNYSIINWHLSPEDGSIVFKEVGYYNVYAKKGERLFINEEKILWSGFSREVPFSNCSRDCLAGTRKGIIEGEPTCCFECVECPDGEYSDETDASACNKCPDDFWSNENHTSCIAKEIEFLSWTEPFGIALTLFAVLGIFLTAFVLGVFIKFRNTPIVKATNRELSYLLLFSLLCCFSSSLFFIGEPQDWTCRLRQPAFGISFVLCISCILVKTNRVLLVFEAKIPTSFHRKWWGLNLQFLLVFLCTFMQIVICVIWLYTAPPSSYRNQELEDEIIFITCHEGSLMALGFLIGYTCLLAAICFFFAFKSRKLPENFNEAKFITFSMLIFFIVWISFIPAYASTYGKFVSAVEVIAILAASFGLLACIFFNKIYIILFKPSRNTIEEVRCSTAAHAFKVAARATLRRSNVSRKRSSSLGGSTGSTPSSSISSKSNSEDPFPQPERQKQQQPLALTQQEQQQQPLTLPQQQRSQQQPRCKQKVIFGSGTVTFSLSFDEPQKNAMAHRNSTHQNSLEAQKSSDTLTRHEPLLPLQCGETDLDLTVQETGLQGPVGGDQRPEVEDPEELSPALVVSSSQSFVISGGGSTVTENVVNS

Binder | Kd [1] [pM] | binding result [2]
NB-2D11 (camel nanobody) (VHH, Cloned in pMECS with a PelB signal peptide; HA tag followed by 6x histidine tag at the C-terminus; Isolated from a phage display library of camels immunised with human CaSR; also called NB-D211; source: E. coli TOP10F' periplasm, purified (Ni-NTA, Superdex 75)) VHH: QVQLQESGGGSVQAGGSLRLSCAASGFPISTYDMGWFRQAPGKEREGVVGITDSFSIKYEDSVKGRFTISRDNAKNALYLQMNSLKPEDTGMYYCAAGDARWSLLLRAEQYNYWGQGTQVTVSS | 240 | –
Human calcium-sensing receptor CaSR (1-870) with C-terminal Flag tag (receptor, UniProt P41180-1 20-870, looked up, signal peptide in the construct; human calcium-sensing receptor (CaSR), residues 1-870, cDNA NM_000388.4; Flag printed as DYKDDDD; Cloned into a modified pEG BacMam vector; also called full-length CaSR; hCaSR; source: HEK293 GnTI- cells infected with baculovirus (BacMam), purified (anti-Flag M2, Mono Q, Superose 6) in GDN/CHS) YGPDQRAQKKGDIILGGLFPIHFGVAAKDQDLKSRPESVECIRYNFRGFRWLQAMIFAIEEINSSPALLPNLTLGYRIFDTCNTVSKALEATLSFVAQNKIDSLNLDEFCNCSEHIPSTIAVVGATGSGVSTAVANLLGLFYIPQVSYASSSRLLSNKNQFKSFLRTIPNDEHQATAMADIIEYFRWNWVGTIAADDDYGRPGIEKFREEAEERDICIDFSELISQYSDEEEIQHVVEVIQNSTAKVIVVFSSGPDLEPLIKEIVRRNITGKIWLASEAWASSSLIAMPQYFHVVGGTIGFALKAGQIPGFREFLKKVHPRKSVHNGFAKEFWEETFNCHLQEGAKGPLPVDTFLRGHEESGDRFSNSSTAFRPLCTGDENISSVETPYIDYTHLRISYNVYLAVYSIAHALQDIYTCLPGRGLFTNGSCADIKKVEAWQVLKHLRHLNFTNNMGEQVTFDECGDLVGNYSIINWHLSPEDGSIVFKEVGYYNVYAKKGERLFINEEKILWSGFSREVPFSNCSRDCLAGTRKGIIEGEPTCCFECVECPDGEYSDETDASACNKCPDDFWSNENHTSCIAKEIEFLSWTEPFGIALTLFAVLGIFLTAFVLGVFIKFRNTPIVKATNRELSYLLLFSLLCCFSSSLFFIGEPQDWTCRLRQPAFGISFVLCISCILVKTNRVLLVFEAKIPTSFHRKWWGLNLQFLLVFLCTFMQIVICVIWLYTAPPSSYRNQELEDEIIFITCHEGSLMALGFLIGYTCLLAAICFFFAFKSRKLPENFNEAKFITFSMLIFFIVWISFIPAYASTYGKFVSAVEVIAILAASFGLLACIFFNKIYIILFKPSRNTIE | – | binds
